Experimental data from paper PMC12906813, “The Transcription Factors NFYA1 and GBF3 Jointly Regulate CHS2 to Promote Tangeretin Accumulation and Cold Tolerance in Citrus”.

Assays:
CiGBF3 = target: T1, CiGBF3 (Citrus ichangensis (Ichang papeda), UniProt V4U7K8 1-421); assay: EMSA; Chemiluminescent EMSA Kit (Beyotime GS009); buffer, salt, pH and temperature not stated; conditions: protein: recombinant; tags: His (pHMGWA vector); chain copies: 2; label: biotin; blunt
T1 sequence: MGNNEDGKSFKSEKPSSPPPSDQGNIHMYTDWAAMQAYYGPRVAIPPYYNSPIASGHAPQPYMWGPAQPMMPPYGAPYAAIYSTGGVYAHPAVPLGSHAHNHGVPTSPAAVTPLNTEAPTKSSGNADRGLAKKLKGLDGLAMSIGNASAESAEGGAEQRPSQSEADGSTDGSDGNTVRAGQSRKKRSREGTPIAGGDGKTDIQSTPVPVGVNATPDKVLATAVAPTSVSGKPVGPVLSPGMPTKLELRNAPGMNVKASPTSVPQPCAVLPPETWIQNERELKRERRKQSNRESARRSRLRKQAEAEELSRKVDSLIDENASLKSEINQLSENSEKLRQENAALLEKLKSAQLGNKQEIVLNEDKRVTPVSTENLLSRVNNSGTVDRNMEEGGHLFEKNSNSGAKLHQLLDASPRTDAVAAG

CiNFYA1 = CiNFYA1 (Citrus ichangensis (Ichang papeda), UniProt A0A067ER94 1-365); assay: as above; conditions: protein: recombinant; tags: His (pHMGWA vector); label: biotin; blunt
Chain of CiNFYA1 (A0A067ER94 entry or part of it): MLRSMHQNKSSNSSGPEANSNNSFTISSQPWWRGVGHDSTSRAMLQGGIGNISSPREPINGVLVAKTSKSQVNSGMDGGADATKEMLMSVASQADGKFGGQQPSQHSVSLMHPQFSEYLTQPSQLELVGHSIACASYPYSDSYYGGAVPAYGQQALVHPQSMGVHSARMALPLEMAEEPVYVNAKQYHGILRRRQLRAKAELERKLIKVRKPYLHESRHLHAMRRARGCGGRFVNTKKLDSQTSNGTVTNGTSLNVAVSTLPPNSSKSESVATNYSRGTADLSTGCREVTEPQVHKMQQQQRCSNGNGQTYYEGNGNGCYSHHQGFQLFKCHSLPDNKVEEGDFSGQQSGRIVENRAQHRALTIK

| Binder | binding result (CiGBF3) | binding result (CiNFYA1) |
| --- | --- | --- |
| CHS2-CACGTG probe (Probe 2) (dsDNA) DNA 1: GCAGCCTAACACTATCCACGTGGTCAGCATCTGCCCGT DNA 2: ACGGGCAGATGCTGACCACGTGGATAGTGTTAGGCTGC | binds | – |
| CHS2-mCACGTG probe (mProbe2) (dsDNA) DNA 1: GCAGCCTAACACTATCTTTTTTGTCAGCATCTGCCCGT DNA 2: ACGGGCAGATGCTGACAAAAAAGATAGTGTTAGGCTGC | no binding | – |
| CHS2-CCAAT probe (Probe 1) (dsDNA) DNA 1: AAAGATCCATTTAATATGTTCCAATTACCGCATTACAAGTACTAAA DNA 2: TTTAGTACTTGTAATGCGGTAATTGGAACATATTAAATGGATCTTT | – | binds |
| CHS2-mCCAAT probe (mProbe1) (dsDNA) DNA 1: AAAGATCCATTTAATATGTAAAAAATACCGCATTACAAGTACTAAA DNA 2: TTTAGTACTTGTAATGCGGTATTTTTTACATATTAAATGGATCTTT | – | no binding |
